Results from paper PMC10377357 (2023).

B1: Rps2(1–145)-TurboID [S. cerevisiae] / Pse1 [S. cerevisiae (endogenous in the yeast strains)] (parent complex)
chain 1: MSAPEAQQQKRGGFGGRNRGRPNRRGPRNTEEKGWVPVTKLGRLVKAGKITTIEEIFLHSLPVKEFQIIDTLLPGLQDEVMNIKPVQKQTRAGQRTRFKAVVVVGDSNGHVGLGIKTAKEVAGAIRAGIIIAKLSVIPIRRGYWG
chain 2: MSALPEEVNRTLLQIVQAFASPDNQIRSVAEKALSEEWITENNIEYLLTFLAEQAAFSQDTTVAALSAVLFRKLALKAPPSSKLMIMSKNITHIRKEVLAQIRSSLLKGFLSERADSIRHKLSDAIAECVQDDLPAWPELLQALIESLKSGNPNFRESSFRILTTVPYLITAVDINSILPIFQSGFTDASDNVKIAAVTAFVGYFKQLPKSEWSKLGILLPSLLNSLPRFLDDGKDDALASVFESLIELVELAPKLFKDMFDQIIQFTDMVIKNKDLEPPARTTALELLTVFSENAPQMCKSNQNYGQTLVMVTLIMMTEVSIDDDDAAEWIESDDTDDEEEVTYDHARQALDRVALKLGGEYLAAPLFQYLQQMITSTEWRERFAAMMALSSAAEGCADVLIGEIPKILDMVIPLINDPHPRVQYGCCNVLGQISTDFSPFIQRTAHDRILPALISKLTSECTSRVQTHAAAALVNFSEFASKDILEPYLDSLLTNLLVLLQSNKLYVQEQALTTIAFIAEAAKNKFIKYYDTLMPLLLNVLKVNNKDNSVLKGKCMECATLIGFAVGKEKFHEHSQELISILVALQNSDIDEDDALRSYLEQSWSRICRILGDDFVPLLPIVIPPLLITAKATQDVGLIEEEEAANFQQYPDWDVVQVQGKHIAIHTSVLDDKVSAMELLQSYATLLRGQFAVYVKEVMEEIALPSLDFYLHDGVRAAGATLIPILLSCLLAATGTQNEELVLLWHKASSKLIGGLMSEPMPEITQVYHNSLVNGIKVMGDNCLSEDQLAAFTKGVSANLTDTYERMQDRHGDGDEYNENIDEEEDFTDEDLLDEINKSIAAVLKTTNGHYLKNLENIWPMINTFLLDNEPILVIFALVVIGDLIQYGGEQTASMKNAFIPKVTECLISPDARIRQAASYIIGVCAQYAPSTYADVCIPTLDTLVQIVDFPGSKLEENRSSTENASAAIAKILYAYNSNIPNVDTYTANWFKTLPTITDKEAASFNYQFLSQLIENNSPIVCAQSNISAVVDSVIQALNERSLTEREGQTVISSVKKLLGFLPSSDAMAIFNRYPADIMEKVHKWFA
B2: Rps2(1–145)-TurboID [S. cerevisiae] / Tsr4 [S. cerevisiae (endogenous in YDK11-5A)] (parent complex)
chain 1: B1 chain 1
chain 2: MSKIEELPPSDTDDHSYSSKPGDVFLAFVDAPVKETDDILVEDSFIGGEPKWLHPDSEPPAELLKCGACKSADNMKLLLQAFSPLDDEQMSAIQQRLGINNMSYINPQDDRVLYVFLCTECQRKGNSVRCIRGVKKNKNVDSLSEKMASTSLEKDFQINPFDLSNNSDSKCNAFSSNPFGGANANPFGADSINSNISQSKDEGKKKESATVSAKTARKLHDLQKDKEYDGNKCFKSCLLYVEEETFKNKKPAHLQLPKNLKIDKEALDLTGDEDLEKDPIKLDPRTEKLSKFLDDDTFQKFQEVVGYNPLQVLRYDLGGKPLLYAETKVDILSTVPRPGYNPSSQRIFEMQLMPKMIFDLEEVVSVDNGMEWGTILVFTDVENYMPEFDEHGVGYVEECVKVQWESRT
B3: Rps2(76–145)-TurboID [S. cerevisiae] / Pse1 [S. cerevisiae (endogenous in the yeast strains)] (parent complex)
chain 1: LQDEVMNIKPVQKQTRAGQRTRFKAVVVVGDSNGHVGLGIKTAKEVAGAIRAGIIIAKLSVIPIRRGYWG
chain 2: B1 chain 2

Variants of: B1
Experiment: TurboID-based proximity labeling; parent: 2; read off a plot

Row | enrichment | Variant
1 | ~0.9 log2 fold change vs controls | chain 1 R95A, chain 1 R97A, chain 1 K99A

Variants of: B1
Experiment: TurboID-based proximity labeling; parent: 30; read off a plot

Row | response [normalized iBAQ] | Variant
2 | ~26 | chain 1 R95A, chain 1 R97A, chain 1 K99A

Variants of: B2
Experiment: TurboID-based proximity labeling; parent: 5.9; read off a plot

Row | enrichment | Variant
3 | ~5.9 log2 fold change vs controls | chain 1 R95A, chain 1 R97A, chain 1 K99A

Variants of: B2
Experiment: TurboID-based proximity labeling; parent: 210; read off a plot

Row | response [normalized iBAQ] | Variant
4 | ~260 | chain 1 R95A, chain 1 R97A, chain 1 K99A

Variants of: B3
Experiment: TurboID-based proximity labeling; baits expressed from plasmid under the copper-inducible CUP1 promoter; parent: 3.1; read off a plot

Row | enrichment | Variant
5 | ~-0.4 log2 fold change vs controls | chain 1 R20A, chain 1 R22A, chain 1 K24A

Variants of: B3
Experiment: TurboID-based proximity labeling; baits expressed from plasmid under the copper-inducible CUP1 promoter; parent: 100; read off a plot

Row | response [normalized iBAQ] | Variant
6 | ~9 | chain 1 R20A, chain 1 R22A, chain 1 K24A
